Results from the supplement of paper PMC10724198.
± gives the standard deviation of the averaged measurements.

Key:
[1] = system: Saccharomyces cerevisiae; assay: protein stability index of tFT-peptide fusion (C-terminal peptide) (PSI (0-1 scale)); higher = more stable (slower turnover)
Protocol: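 MPS profiling in S. cerevisiae of the tFT-X12 degron library: putative degron peptides plus stable controls, 12 aa, fused to the C-terminus of a sfGFP-mCherry timer. Cells are FACS-sorted into 8 mCherry/sfGFP bins and deep-sequenced. PSI runs from 0 (unstable) to 1 (stable). Backgrounds are wild type, das1Δ and doa10Δ at 30 °C, and wild type, das1Δ, cdc34-1 and cdc53-1 at 37 °C; 2-3 technical replicates each.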

[2] = system: Saccharomyces cerevisiae; assay: as above; details: genetic background: wild type; temperature: 30 C
[3] = genetic background: cdc34-1, temperature: 37 C
[4] = genetic background: cdc53-1, temperature: 37 C
[5] = genetic background: das1 deletion, temperature: 30 C
[6] = genetic background: das1 deletion, temperature: 37 C
[7] = genetic background: doa10 deletion, temperature: 30 C
[8] = genetic background: wild type, temperature: 30 C
[9] = genetic background: wild type, temperature: 37 C
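Further: PSI is a weighted mean of sequencing reads over stability bins, variants kept only with over 10 reads, mCherry proximal and sfGFP distal, peptide attached via GGGS linker.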

| Sequence | protein stability index [1, 3] | protein stability index [1, 4] | protein stability index [1, 5] | protein stability index [1, 6] | protein stability index [1, 7] | protein stability index [1, 8] | protein stability index [1, 9] | protein stability index [2] |
| --- | --- | --- | --- | --- | --- | --- | --- | --- |
| CSLFYVFYRRLL | 0.595 ± 0.026 | 0.665 ± 0.012 | 0.556 ± 0.0087 | 0.649 ± 0.01 | 0.285 ± 0.011 | 0.342 ± 0.051 | 0.5212 ± 0.0043 | 0.38 ± 0.0078 |
| CVCVVVCWRCGF | 0.378 ± 0.018 | 0.465 ± 0.035 | 0.306 ± 0.031 | 0.509 ± 0.021 | 0.276 ± 0.0091 | 0.327 ± 0.034 | 0.4555 ± 0.0043 | 0.481 ± 0.015 |
| SLTNYQRLIHVC | 0.147 ± 0.037 | 0.245 ± 0.064 | 0.223 ± 0.031 | 0.361 ± 0.014 | 0.0969 ± 0.0057 | 0.126 ± 0.036 | 0.0936 ± 0.0094 | 0.258 ± 0.13 |
| TTGLLPSAYIWS | 0.758 ± 0.05 | 0.753 ± 0.024 | 0.6494 ± 0.0043 | 0.768 ± 0.033 | 0.677 ± 0.0094 | 0.667 ± 0.028 | 0.716 ± 0.04 | 0.762 ± 0.011 |
| VRLLLIFRLLVI | 0.463 ± 0.0077 | 0.539 ± 0.013 | 0.417 ± 0.039 | 0.551 ± 0.0066 | 0.2909 ± 0.0022 | 0.267 ± 0.038 | 0.447 ± 0.02 | 0.299 ± 0.09 |
| LHASCVYTILLV | 0.427 ± 0.035 | 0.4584 ± 0.0012 | 0.351 ± 0.03 | 0.499 ± 0.0092 | 0.323 ± 0.019 | 0.304 ± 0.019 | 0.451 ± 0.0082 | 0.389 ± 0.0049 |
| LGCRFCFVGVVG | 0.589 ± 0.011 | 0.632 ± 0.052 | 0.429 ± 0.021 | 0.634 ± 0.026 | 0.395 ± 0.01 | 0.439 ± 0.029 | 0.574 ± 0.022 | 0.494 ± 0.033 |
| FGEDFCHLLWCC | 0.623 ± 0.033 | 0.713 ± 0.021 | 0.583 ± 0.026 | 0.725 ± 0.011 | 0.347 ± 0.0051 | 0.374 ± 0.027 | 0.542 ± 0.018 | 0.442 ± 0.014 |
| SYRFFLFLAVFV | 0.555 ± 0.014 | 0.554 ± 0.048 | 0.451 ± 0.034 | 0.574 ± 0.0017 | 0.442 ± 0.017 | 0.44 ± 0.012 | 0.5379 ± 0.0032 | 0.461 ± 0.021 |
| VQLFCLRREMII | 0.544 ± 0.025 | 0.609 ± 0.009 | 0.503 ± 0.027 | 0.583 ± 0.043 | 0.335 ± 0.0084 | 0.365 ± 0.019 | 0.506 ± 0.013 | 0.381 ± 0.0047 |
| FPSLLFALFLFI | 0.481 ± 0.046 | 0.502 ± 0.0056 | 0.436 ± 0.027 | 0.5271 ± 0.00065 | 0.4401 ± 0.0013 | 0.415 ± 0.036 | 0.501 ± 0.018 | 0.475 ± 0.017 |
| WFSAGSCRWVLC | 0.58 ± 0.061 | 0.71 ± 0.023 | 0.543 ± 0.012 | 0.709 ± 0.013 | 0.126 ± 0.0071 | 0.1431 ± 0.00041 | 0.321 ± 0.027 | 0.24 ± 0.0076 |
| SVECLCLFVACR | 0.1923 ± 0.00067 | 0.254 ± 0.0049 | 0.193 ± 0.026 | 0.3432 ± 0.0011 | 0.155 ± 0.0075 | 0.184 ± 0.025 | 0.288 ± 0.0032 | 0.259 ± 0.013 |
| GVARALFLWKAV | 0.64 ± 0.032 | 0.709 ± 0.018 | 0.65 ± 0.022 | 0.7486 ± 0.0021 | 0.286 ± 0.0013 | 0.317 ± 0.03 | 0.464 ± 0.0088 | 0.379 ± 0.041 |
| GSLVLSCLMSRA | 0.558 ± 0.04 | 0.603 ± 0.018 | 0.42 ± 0.034 | 0.573 ± 0.0029 | 0.431 ± 0.037 | 0.438 ± 0.012 | 0.537 ± 0.02 | 0.4872 ± 0.00045 |
| RVTEYHTKYKIV | 0.487 ± 0.13 | 0.673 ± 0.076 | 0.656 ± 0.025 | 0.728 ± 0.077 | 0.0697 ± 0.0072 | 0.0674 ± 0.021 | 0.0807 ± 0.021 | 0.153 ± 0.012 |
| SYVRLDLFFFLG | 0.517 ± 0.069 | 0.591 ± 0.03 | 0.491 ± 0.012 | 0.5727 ± 0.0048 | 0.46 ± 0.038 | 0.472 ± 0.026 | 0.5357 ± 0.0037 | 0.568 ± 0.11 |
| VLSLYWLIISRL | 0.717 ± 0.04 | 0.736 ± 0.0093 | 0.616 ± 0.016 | 0.742 ± 0.012 | 0.446 ± 0.021 | 0.42 ± 0.0056 | 0.566 ± 0.021 | 0.4672 ± 0.00061 |
| RVLSLLGCFVVF | 0.501 ± 0.03 | 0.486 ± 0.013 | 0.448 ± 0.028 | 0.585 ± 0.018 | 0.485 ± 0.017 | 0.429 ± 0.013 | 0.558 ± 0.026 | 0.4651 ± 0.0023 |
| RVFLVLFLILSG | 0.297 ± 0.021 | 0.428 ± 0.0072 | 0.287 ± 0.031 | 0.469 ± 0.0087 | 0.262 ± 0.0092 | 0.286 ± 0.018 | 0.425 ± 0.0055 | 0.344 ± 0.028 |
| GVLTVVLQVGVV | 0.299 ± 0.033 | 0.378 ± 0.053 | 0.309 ± 0.038 | 0.428 ± 0.019 | 0.282 ± 0.011 | 0.304 ± 0.02 | 0.407 ± 0.0063 | 0.393 ± 0.0095 |
| FPFVYRSVLLFF | 0.392 ± 0.052 | 0.484 ± 0.012 | 0.411 ± 0.033 | 0.577 ± 0.011 | 0.1059 ± 0.00044 | 0.0991 ± 0.021 | 0.216 ± 0.029 | 0.177 ± 0.089 |
| GRGVRLRVRLLL | 0.664 ± 0.023 | 0.73 ± 0.031 | 0.606 ± 0.022 | 0.7 ± 0.019 | 0.185 ± 0.014 | 0.217 ± 0.006 | 0.43 ± 0.04 | 0.292 ± 0.1 |
| FLWLCLLSLFFR | 0.454 ± 0.069 | 0.383 ± 0.035 | 0.436 ± 0.018 | 0.548 ± 0.017 | 0.547 ± 0.01 | 0.434 ± 0.0099 | 0.498 ± 0.031 | 0.481 ± 0.018 |
| LFIRSFLFFSHF | 0.353 ± 0.0079 | 0.3482 ± 0.00057 | 0.498 ± 0.019 | 0.581 ± 0.016 | 0.248 ± 0.026 | 0.184 ± 0.025 | 0.307 ± 0.082 | 0.27 ± 0.0052 |
| FRFYCGLVIANV | 0.455 ± 0.016 | 0.484 ± 0.029 | 0.385 ± 0.019 | 0.51729 ± 0.00021 | 0.359 ± 0.03 | 0.377 ± 0.031 | 0.531 ± 0.039 | 0.483 ± 0.027 |
| FFSGSVFMAVSL | 0.387 ± 0.011 | 0.44 ± 0.0097 | 0.444 ± 0.04 | 0.399 ± 0.017 | 0.467 ± 0.036 | 0.433 ± 0.02 | 0.37901 ± 0.00016 | 0.408 ± 0.008 |
| VFFVLIFLLFLF | 0.438 ± 0.025 | 0.448 ± 0.03 | 0.4 ± 0.03 | 0.46 ± 0.012 | 0.41 ± 0.0085 | 0.353 ± 0.05 | 0.469 ± 0.0008 | 0.421 ± 0.011 |
| VSCFIVSFWVFL | 0.389 ± 0.0086 | 0.461 ± 0.033 | 0.355 ± 0.02 | 0.546 ± 0.008 | 0.309 ± 0.034 | 0.323 ± 0.031 | 0.495 ± 0.052 | 0.471 ± 0.012 |
| LRMMLLVTIILE | 0.0571 ± 0.0011 | 0.115 ± 0.0084 | 0.107 ± 0.028 | 0.216 ± 0.0072 | 0.0875 ± 0.023 | 0.0921 ± 0.025 | 0.198 ± 0.026 | 0.188 ± 0.037 |
